From the nanobody polyreactivity screen of Harvey et al. (2022)

Test: yeast display, Sf9 membrane polyspecificity reagent, FACS + sequencing; frameworks hold sequencing errors
In short: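 A synthetic nanobody library was expressed on Saccharomyces cerevisiae BJ5465 by galactose induction for 36–48 hours. The library was stained for 1 hour at 4 °C with 10% biotinylated, detergent-solubilized Sf9 membrane reagent and enriched with streptavidin microbeads before FACS. Low and high (top ~1%) gates were set on anti-HA fluorescence for expression and streptavidin fluorescence for reagent binding, and each polyreactivity label reflects the gate of origin.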
With “QVQLVESGGGLVQAGGSLRLSCAASGSTFYRYAMAWYRPAPGKERELVAAITRGGGRTYYADSVKGRFTISRDNAKNTVYLQMNSLKPEDTAVYYCNSASPYYDSWGQGTQVTVSS” the “polyreactivity (PSR sort gate)” value was “high polyreactivity”. With “QVQLVESGGGLVQAGGSLRLSCAASGRIFYPNTMGWYIQAPGKERELVAAISRSGGSTYYTDSVKGRFTISRDNAKNTVYLQMNSLKPEDTAVYYCATVPYESRYDYWGQGTQVTVSS” the “polyreactivity (PSR sort gate)” value was “high polyreactivity”. With “QVQLVESGGGLVQAGGSLRLSCAASGSTFQRNAMGWYRQAPGKERELVAAITSRGGSTYYADSVKGRFTISRDNAKNTVSLQMNSLNPEDTGVYYCAALTWARSRNGTYDYWGPGTQVTVSS” the “polyreactivity (PSR sort gate)” value was “high polyreactivity”. For “QDQLVESGGGLVQAGGSLRLSGAASGRTFRRYAKGWDRQAPGKEREWVATISSGGSTYYADSVKGRFTISRDNAKNTVYLQMNSLKPEDTALYYCAVRYWRAYYRYDYWGQGTQVTVSS”, the “polyreactivity (PSR sort gate)” value was “high polyreactivity”. In the case of “QVQLVESGGGLVQAGGSLRLSCAASGRTFTYNTMGWYRQAPGKERELVAAISSRGGRTYYADSVKGRFTISRDNAKNTVYLQMHSLKAEDTAVYYCAVYGYYSLSHWDYDYWAQGTQVTVSS”, the “polyreactivity (PSR sort gate)” value is reported as “high polyreactivity”. With “QVQLVESGGGLVHAGGSLRLSCAASGITFVYYAMGWYRQAPGKERELVAAIDDTGTTYYADSVKGRFTISRDNAKNTVYLQMNSLKPEDTAVYYCAADDWGWFFGGGDYWGQGTQVTVSS” the “polyreactivity (PSR sort gate)” value was “high polyreactivity”. With “QVQLVESGGGLVQAGGSLRLSCAASGRTFGRYTMGWYRQAPGKERELVAAINWSGGRTYYADSVKGRFTISRDNAKNTVYLQMNSLKPEDTAVYYCNAVFANTSPEYEYWGQGTQVTVSS” the “polyreactivity (PSR sort gate)” value was “high polyreactivity”. For “QVQLVESGVGLVQAGGSLRLSCAASGIFYGYAMGWYRQAPGKERELVAAISSGGSTYYADSVKGRFTISRDNAKNTVYLQMISLNPEDTAVYYCAAGKKRPGWTFPRYYWGQGTQVTVSS”, the “polyreactivity (PSR sort gate)” value was “high polyreactivity”. With “QVQLVESGGGLVQAGGSLRLSCAASGSTFIPYAMGWYRQAPGKERELVAAIRGGDGSTYYADSVKGRFTISRDNAKNTVYLQMNSLKPEDTAVYYCAADTVITAYFYRFWRYNYWGQGTQVTVSS” the “polyreactivity (PSR sort gate)” value was “low polyreactivity”. For “QVQHVESGGGLVQAGGSLRLSCAASVRTLYYYAMGWYRQAPGKERELVAAISGGGRTYYADSVKGRFTISRDNAKNTVYLQMNSLKPEDTAVYYCASRYRKSGLDNYWGQGTQVTVSS”, the “polyreactivity (PSR sort gate)” value was “high polyreactivity”. For “QVQLVESGGGLVQAGGSLRISCAASGFIFYGNAMGWYIQAPGKERELVASITGGGRTYYADSVKGRFTISRDNAKNTVYLQMNSLKPEDTAVYYCATLLAYRLGSGYDSWGQGTQVTVSS”, the “polyreactivity (PSR sort gate)” value was “high polyreactivity”. For “QVQLVESGGGLVQAGGSLRLSCAASGFTFSSYAMGWYRQAPGKERELDAAITRNGGSTYYADSVKGRFTISRDNAKNTDYLQMNSLNPEYTAVYNCAAQYPRQRYGYYWPYYKYYYWGHGTQVTVSS”, the “polyreactivity (PSR sort gate)” value was “high polyreactivity”. For “QVQLVESGGGLVQAGGSLRLSCAASGIIFYIYAMGWYRQAPGKETELVASISFSGTSTYYADSVKGRFTISRDNAKNTVYLQLHSLKPEDTAVYYCNAQTNRPWGWPIGYDYWGQGTQVTVSS”, the “polyreactivity (PSR sort gate)” value was “low polyreactivity”. In the case of “QVQLVESGGGLVQAGGSLRLSCAASGRTSGINAMGWYRQSPGKERELVAAISSGGRTYYADSVKGRFTISRDNAKNTVYLQMNSLKPEDTAVYYCAAVIHWSLYRRMEYWGQGTQVTVSS”, the “polyreactivity (PSR sort gate)” value is reported as “high polyreactivity”. In the case of “QVQLVESGGGLVQAGGSLRLSCAASGLIIGVYAMGWYRQAPGKERELVAAITDGGSTYYADSVKGRFTISRDNAKNTVYLQMNSLKPEDTAVYYCNKLYTRVGFTFEYWGQGTQVTVSS”, the “polyreactivity (PSR sort gate)” value is reported as “low polyreactivity”. For “QVQLVESGGGLVQAGGSLRLSCAASGFTFIPNAMGWYRQAPGKERELVADITWSGGTTYYADSVKGRFTISRDNAKNTVYLQMNSLKPEDTAVYYCNADYLFYAFDYWGQGTQVTVSS”, the “polyreactivity (PSR sort gate)” value was “low polyreactivity”. In the case of “QVQLVESGGGLVQAGGSLRLSCAASGLIFYSYAMGWYRQAPGKERELVAAITGGGSTNYADSVKGRFTISRDNAKNTVYLQMNSLKPEDTAVYYCAAAFTLRKYDYWGQGTQVTVSS”, the “polyreactivity (PSR sort gate)” value is reported as “low polyreactivity”. In the case of “QVQLVESGGGLVQAGGSLRLSCAASGRTFERNAMGWYRQAPGKERQLVAAITSGDGTSYADSVKGRFTISRDNAKNTVYLQMNSLKPEDTAVYYCAAPFVGSVVIRRWDEYDYWGQGTQVTVSS”, the “polyreactivity (PSR sort gate)” value is reported as “low polyreactivity”. For “QVQLVESGGGLVQAGGSLRLSSAASGRIFYYNAMGWYSQAPGKERELVAAITRGGSTYYADSVKGRFTISRDNAKNTVYLQMNSLKPEDTAVYYCAAYLDYWSYLNGQYDYWGQGTQVTVSS”, the “polyreactivity (PSR sort gate)” value was “high polyreactivity”. For “HVQLVESGGGLVQAGGSLRLSCAATGRIFWLYAMGWYRQAPGKERELVAAISSGGSTSYADSVKGRFTISRDNAKNTVYVQMNSLKPEDTAVYYCNATLLFPQLDGPESGEFDYWGQGTQRTVSS”, the “polyreactivity (PSR sort gate)” value was “low polyreactivity”. For “QVQLVESGGGLVQAGGSLRLSCAASGRTFTTNAMGWYRQAPGKERELVAAITIGDDTYYADSVKGRFTISRDNAKNTVYLQMNSLKPEDTAVYYCNVDGRSDGDDYWGQGTQVTVSS”, the “polyreactivity (PSR sort gate)” value was “low polyreactivity”.
